Experimental data taken from US20150368338A1 (Janssen / Centocor, published 2015).
Substitutions are numbered along the chain they refer to.

T1: IFN-αF (human, UniProt P01568 24-189)
T1 construct: also called IFN-α21; alpha F
T1 chain: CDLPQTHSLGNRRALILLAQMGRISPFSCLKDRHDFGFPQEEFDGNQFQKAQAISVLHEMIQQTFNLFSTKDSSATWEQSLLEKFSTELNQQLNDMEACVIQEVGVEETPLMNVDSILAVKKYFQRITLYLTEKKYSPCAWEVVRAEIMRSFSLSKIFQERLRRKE

B1: IFWM3344 (antibody, V domains shown)
VH: EVQLVQSGAEVKKPGESLKISCKGSGYSFTSYWIGWVRQMPGKGLEWMGIIDPSDSDTAYSPSFQGQVTISADKSISTAYLQWSSLKASDTAMYYCARHPGLNWAPDFDYWGQGTLVTVSS
VL: DIQMTQSPSSLSASVGDRVTITCRASQSISKFLNWYQQKPGKAPKLLIYFASSLQSGVPSRFSGSGSGTDFTLTISSLQPEDFATYYCQQSNTLPFTFGQGTKVEIK
notes: VH IFWH624, VL IFWL998; converted mAb; also called IFWB3079
B2: IFWM3329 (antibody, V domains shown)
VH: B1 VH with A59R
VL: DIQMTQSPSSLSASVGDRVTITCRASQSIRNNNLNWYQQKPGKAPKLLIHWASSLQSGVPSRFSGSGSGTDFTLTISSLQPEDFATYYCQQGYDTPFTFGQGTKVEIK
notes: VH IFWH591, VL IFWL1067; converted mAb; also called IFWB3064
B3: IFWM3360 (antibody, V domains shown)
VH: B1 VH
VL: B1 VL with S30D, K31G, F32A, S91A, N92Y, T93D, L94F, F96L
notes: VH IFWH624, VL IFWL1048; converted mAb; also called IFWB3095
B4: IFWM3361 (antibody, V domains shown)
VH: B1 VH
VL: B1 VL with S30A, K31D, N92H, T93S, L94F, F96L
notes: VH IFWH624, VL IFWL1051; converted mAb; also called IFWB3096
B5: IFWM3359 (antibody, V domains shown)
VH: B1 VH
VL: B1 VL with S30N, K31G, F32V, N92H, T93D, L94F, F96L
notes: VH IFWH624, VL IFWL1047; converted mAb; also called IFWB3094
B6: IFWM3351 (antibody, V domains shown)
VH: B1 VH
VL: B1 VL with S30D, K31G, F32A, N92F, T93D, L94F, F96L
notes: VH IFWH624, VL IFWL1010; converted mAb; also called IFWB3086
B7: IFWM3358 (antibody, V domains shown)
VH: B1 VH
VL: B1 VL with S30T, K31G, F50A, N92H, T93D, L94F, F96L
notes: VH IFWH624, VL IFWL1041; converted mAb; also called IFWB3093
B8: IFWM3357 (antibody, V domains shown)
VH: B1 VH
VL: B1 VL with K31E, F32Y, N92H, T93S, F96I
notes: VH IFWH624, VL IFWL1038; converted mAb; also called IFWB3092
B9: IFWM3348 (antibody, V domains shown)
VH: B1 VH
VL: B1 VL with S30G, K31G, N92Y, T93S, F96I
notes: VH IFWH624, VL IFWL1006; converted mAb; also called IFWB3083
B10: IFWM3334 (antibody, V domains shown)
VH: B1 VH with A59R
VL: B2 VL with N33S, H50Y, W51A, G92D, D94N, T95W, F97L
notes: VH IFWH591, VL IFWL1082; converted mAb; also called IFWB3069
B11: IFWM3349 (antibody, V domains shown)
VH: B1 VH
VL: B1 VL with S30G, F32S, N92Y, T93D, L94F, F96L
notes: VH IFWH624, VL IFWL1007; converted mAb; also called IFWB3084
B12: IFWM3347 (antibody, V domains shown)
VH: B1 VH
VL: B1 VL with S30A, K31E, N92I, T93D, L94F, F96L
notes: VH IFWH624, VL IFWL1004; converted mAb; also called IFWB3082

Target: T2, human IFN-ω (human, UniProt P05000 24-195)
T2 construct: also called interferon omega
Assay: ProteOn, one antigen concentration
Source text: (§1) To increase the assay throughput, only one concentration of the individual antigen was used.

Binder | Kd [nM]
B1 | 0.078
B2 | 0.059
B3 | 0.025
B4 | 0.03
B5 | 0.021
B6 | 0.004
B7 | 0.018
B8 | 0.004
B9 | 0.05
B10 | 0.345
B11 | 0.007
B12 | 0.048

Target: T3, IFN-αC (human, UniProt P01566 24-189)
T3 construct: also called IFN-α10; alpha C
Assay: ProteOn, one antigen concentration
Source text: as §1

Binder | Kd [nM]
B1 | 0.161
B2 | 0.05
B3 | 0.056
B4 | 0.101
B5 | 0.041
B6 | 0.048
B7 | 0.054
B8 | 0.023
B9 | 0.083
B10 | 0.62
B11 | 0.056
B12 | 0.096

Target: T1, IFN-αF
Assay: ProteOn, one antigen concentration
Source text: as §1

Binder | Kd [nM]
B1 | 0.14
B2 | 0.051
B3 | 0.049
B4 | 0.135
B5 | 0.053
B6 | 0.053
B7 | 0.047
B8 | 0.039
B9 | 0.064
B10 | 5.21
B11 | 0.052
B12 | 0.136

Target: T4, IFN-αJ1 (human, UniProt P01567 24-189)
T4 construct: also called IFN-α7; alpha J1
Assay: ProteOn, one antigen concentration
Source text: as §1

Binder | Kd [nM]
B1 | 0.274
B2 | 0.166
B3 | 0.174
B4 | 0.388
B5 | 0.136
B6 | 0.14
B7 | 0.223
B8 | 0.13
B9 | 0.164
B10 | 2.4
B11 | 0.123
B12 | 0.411

Target: T5, IFN-α4a (human, UniProt P05014 24-189)
T5 construct: also called IFN-αM1
Assay: ProteOn, one antigen concentration
Source text: as §1

Binder | Kd [nM]
B1 | 0.442
B2 | 0.258
B3 | 0.233
B4 | 0.622
B5 | 0.147
B6 | 0.113
B7 | 0.319
B8 | 0.17
B9 | 0.089
B10 | 0.744
B11 | 0.174
B12 | 0.35

Target: T6, IFN-αG (human, UniProt P01569 24-189)
T6 construct: also called IFN-α5; alpha G
Assay: ProteOn, one antigen concentration
Source text: as §1

Binder | Kd [nM]
B1 | 0.112
B2 | 0.061
B3 | 0.043
B4 | 0.066
B5 | 0.04
B6 | 0.015
B7 | 0.048
B8 | 0.014
B9 | 0.02
B10 | 0.941
B11 | 0.065
B12 | 0.084

Target: T7, IFN-αWA (human, UniProt P05015 24-189)
T7 construct: also called IFN-α16; alpha WA
Assay: ProteOn, one antigen concentration
Source text: as §1

Binder | Kd [nM]
B1 | 0.105
B2 | 0.173
B3 | 0.061
B4 | 0.098
B5 | 0.051
B6 | 0.033
B7 | 0.123
B8 | 0.037
B9 | 0.049
B10 | 0.517
B11 | 0.102
B12 | 0.125
